By Kd is commonly meant the free concentration of one partner at which half of the binding sites on the other are occupied at equilibrium, for simple one-to-one binding. The term koff denotes the first-order rate constant of dissociation. What is called kon is the second-order rate constant of association.

The test has as its target T1, Human ubiquitin (human, UniProt P0CG48 1-76).
T1 construct: ubiquitin, human; the cut product of the ubiquitin precursors; also called acceptor Ub; source: bought: BostonBiochem (lyophilized)
In words: NMR titration; 2D 1H-15N HSQC at 600 MHz; [U-15N]-E2-25K at 417-428 uM with ubiquitin at 0, 200, 400, 560, 790 and 1600 uM in six samples; PBS buffer (20 mM sodium phosphate, 150 mM NaCl, DTT, pH 7.4); chemical shift changes fit to a 1:1 binding isotherm; kon and koff from 15N lineshape analysis of G173 (Bloch-McConnell, two site exchange). The note with it: both partners purified.

B1: Human E2-25K (enzyme, UniProt P61086 1-200, looked up)
chain: MANIAVQRIKREFKEVLKSEETSKNQIKVDLVDENFTELRGEIAGPPDTPYEGGRYQLEIKIPETYPFNPPKVRFITKIWHPNISSVTGAICLDILKDQWAAAMTLRTVLLSLQALLAAAEPDDPQDAVVANQYKQNPEMFKQTARLWAHVYAGAPVSSPEYTKKIENLCAMGFDRNAVIVALSSKSWDVETATELLLSN
notes: E2-25K (ubiquitin-conjugating enzyme, UBC core domain and UBA domain), human; called 'intact human E2-25K' in the results; cloned into pHis-parallel1; [U-15N]-labelled for the NMR titration; also called wildtype E2-25K; intact human E2-25K; source: E. coli BL21(DE3)-RIPL, purified (His-prep column, TEV cleavage, Superdex 75)
With B1, the equilibrium dissociation constant (Kd) came out at 206 ± 30 µM, the koff stood at 5890 s⁻¹ and the association rate constant (kon) came to 2.9e+07 M⁻¹ s⁻¹.

The values above are taken from publication PMC5934386, “Active Site Gate Dynamics Modulate the Catalytic Activity of the Ubiquitination Enzyme E2-25K” (Scientific Reports, 2018).
